From patent US20230272069A1 (INSTITUTE OF HEMATOLOGY AND BLOOD DISEASES HOSPITAL CHINESE …, published 2023)
Values belong to the binder of their own block, whether it stands above or below them.

Tests used:
[1] = target: T1, CD19 antigen molecule (human, UniProt P15391 20-556); test: cell-based or functional assay
T1 sequence (looked up): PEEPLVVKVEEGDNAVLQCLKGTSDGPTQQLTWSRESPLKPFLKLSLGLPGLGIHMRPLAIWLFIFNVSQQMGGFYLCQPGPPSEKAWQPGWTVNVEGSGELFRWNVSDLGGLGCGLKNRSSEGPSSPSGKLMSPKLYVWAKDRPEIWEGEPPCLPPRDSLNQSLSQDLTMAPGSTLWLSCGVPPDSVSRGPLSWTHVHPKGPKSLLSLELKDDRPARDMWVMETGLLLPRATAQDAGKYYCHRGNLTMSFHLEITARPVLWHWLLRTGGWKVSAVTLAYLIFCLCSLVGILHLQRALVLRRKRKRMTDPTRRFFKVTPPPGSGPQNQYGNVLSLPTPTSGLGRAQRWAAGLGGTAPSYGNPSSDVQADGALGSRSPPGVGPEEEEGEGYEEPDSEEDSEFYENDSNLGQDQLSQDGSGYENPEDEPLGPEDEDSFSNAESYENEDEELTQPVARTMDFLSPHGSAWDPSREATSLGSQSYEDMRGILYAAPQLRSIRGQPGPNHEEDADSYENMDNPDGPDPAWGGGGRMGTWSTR

[2] = target: T2, CD22 antigen molecule (human, UniProt P20273 20-847); test: cell-based or functional assay
T2 sequence (looked up): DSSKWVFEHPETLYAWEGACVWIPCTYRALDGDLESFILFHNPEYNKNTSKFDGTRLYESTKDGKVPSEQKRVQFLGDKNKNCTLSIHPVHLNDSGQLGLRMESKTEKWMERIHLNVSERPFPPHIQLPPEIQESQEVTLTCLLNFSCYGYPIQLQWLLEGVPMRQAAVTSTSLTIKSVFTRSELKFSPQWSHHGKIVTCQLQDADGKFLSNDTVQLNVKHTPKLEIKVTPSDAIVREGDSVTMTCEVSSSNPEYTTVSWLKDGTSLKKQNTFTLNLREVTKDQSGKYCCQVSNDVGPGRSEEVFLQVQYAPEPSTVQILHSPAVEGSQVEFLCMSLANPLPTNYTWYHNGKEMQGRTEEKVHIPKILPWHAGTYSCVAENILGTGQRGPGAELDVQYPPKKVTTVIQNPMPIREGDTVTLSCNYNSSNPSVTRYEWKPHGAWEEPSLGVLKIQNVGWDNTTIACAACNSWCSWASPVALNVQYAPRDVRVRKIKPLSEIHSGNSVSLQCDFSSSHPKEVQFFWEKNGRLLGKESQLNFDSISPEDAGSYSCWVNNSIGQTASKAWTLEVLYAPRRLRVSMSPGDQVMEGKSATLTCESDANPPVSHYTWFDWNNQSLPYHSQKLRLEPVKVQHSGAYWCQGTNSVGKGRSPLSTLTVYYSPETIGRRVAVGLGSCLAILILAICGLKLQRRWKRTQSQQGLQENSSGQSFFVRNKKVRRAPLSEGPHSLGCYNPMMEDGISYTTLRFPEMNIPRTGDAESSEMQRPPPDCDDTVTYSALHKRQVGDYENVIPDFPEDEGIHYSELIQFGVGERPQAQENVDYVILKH

degranulation level (CD107a on GFP+ cells) after co-culture with MV4-11-CD19 cells, E:T 1:1, 4 h [1]: ≥ 25% | degranulation level (CD107a on GFP+ cells) after co-culture with MV4-11-CD22 cells, E:T 1:1, 4 h [2]: ≥ 15%
B1: CD22 scFv-CD19 scFv-CD8α-4-1BB-CD3ζ CAR (other)
chain: DIELTQSPSSLAVSVGEKVTMSCKSSQSLLYSSNQKNYLAWYQQKPGQSPKLLIYWASTRESGVPDRFTGSGSGTDFTLTVSSVKAEDLAVYYCQQSYSYPFTFGSGTKLEIKRGGGGSGGGGSGGGGSQVKLQQSGPELVKPGASVKISCKASGYDFSISWMNWVRQRPGQGLEWIGRIYPGDGDSNYNGKFEGKATLTADKSSSTAYMQLSGLTSVDSAVYFCARTTTMIALYAMDYWGQGTTVTVSSEAAAKEAAAKEAAAKEAAAKEAAAKDIVLTQSPKFMSTSVGDRVSVTCKASQNVGTNVAWYQQKPGQSPKPLIYSATYRNSGVPDRFTGSGSGTDFTLTITNVQSKDLADYFCQQYNRYPYTSGGGTKLEIKRGGGGSGGGGSGGGGSQVQLQQSGAELVRPGSSVKISCKASGYAFSSYWMNWVKQRPGQGLEWIGQIYPGDGDTNYNGKFKGQATLTADKSSSTAYMQLSGLTSEDSAVYFCARKTISSVVDFYFDYWGQGTTLTVSSEFTTTPAPRPPTPAPTIASQPLSLRPEACRPAAGGAVHTRGLDFACDIYIWAPLAGTCGVLLLSLVITLYKRGRKKLLYIFKQPFMRPVQTTQEEDGCSCRFPEEEEGGCELRVKFSRSADAPAYQQGQNQLYNELNLGRREEYDVLDKRRGRDPEMGGKPRRKNPQEGLYNELQKDKMAEAYSEIGMKGERRRGKGHDGLYQGLSTATKDTYDALHMQALPPR

degranulation level (CD107a on GFP+ cells) after co-culture with MV4-11-CD19 cells, E:T 1:1, 4 h [1]: ≥ 25% | degranulation level (CD107a on GFP+ cells) after co-culture with MV4-11-CD22 cells, E:T 1:1, 4 h [2]: ≥ 15%
B2: CD19 VL-CD22 VL-CD22 VH-CD19 VH-CD8α-4-1BB-CD3ζ CAR (other)
chain: DIVLTQSPKFMSTSVGDRVSVTCKASQNVGTNVAWYQQKPGQSPKPLIYSATYRNSGVPDRFTGSGSGTDFTLTITNVQSKDLADYFCQQYNRYPYTSGGGTKLEIKRGGGGSDIELTQSPSSLAVSVGEKVTMSCKSSQSLLYSSNQKNYLAWYQQKPGQSPKLLIYWASTRESGVPDRFTGSGSGTDFTLTVSSVKAEDLAVYYCQQSYSYPFTFGSGTKLEIKRGSTSGSGKPGSGEGSTKGQVKLQQSGPELVKPGASVKISCKASGYDFSISWMNWVRQRPGQGLEWIGRIYPGDGDSNYNGKFEGKATLTADKSSSTAYMQLSGLTSVDSAVYFCARTTTMIALYAMDYWGQGTTVTVSSGGGGSQVQLQQSGAELVRPGSSVKISCKASGYAFSSYWMNWVKQRPGQGLEWIGQIYPGDGDTNYNGKFKGQATLTADKSSSTAYMQLSGLTSEDSAVYFCARKTISSVVDFYFDYWGQGTTLTVSSEFTTTPAPRPPTPAPTIASQPLSLRPEACRPAAGGAVHTRGLDFACDIYIWAPLAGTCGVLLLSLVITLYKRGRKKLLYIFKQPFMRPVQTTQEEDGCSCRFPEEEEGGCELRVKFSRSADAPAYQQGQNQLYNELNLGRREEYDVLDKRRGRDPEMGGKPRRKNPQEGLYNELQKDKMAEAYSEIGMKGERRRGKGHDGLYQGLSTATKDTYDALHMQALPPR
